Residue numbers refer to the chain shown, from its start.
Assays:
[1] = biological target: T1, PD-L1 on PD-L1 overexpressing cells (human, UniProt Q9NZQ7 19-290); experiment: cell binding, PD-L1 overexpressing cells, anti-human-IgG-Eu fluorescence
T1 construct: whole, on cells; also called PD-L1过表达细胞; PD-L1稳定过表达CHO细胞株

[2] = biological target: T2, recombinant PD-L1-Fc protein (human, UniProt Q9NZQ7 19-238, limits assumed); experiment: competition ELISA, coated PD-L1-Fc, competitor biotinylated PD1 0.5ug/ml
T2 construct: also called 重组PD-L1-Fc蛋白; PD-L1重组蛋白; not shown: Fc part

[3] = biological target: T1, PD-L1 on PD-L1 overexpressing cells; experiment: inhibition of biotinylated PD1 binding to PD-L1 overexpressing cells, Eu-streptavidin
[4] = biological target: T1, PD-L1 on PD-L1 overexpressing cells; experiment: cell-based or functional assay
[5] = biological target: T3, recombinant PD-L1-His protein (human, UniProt Q9NZQ7 19-238); experiment: ELISA, coated PD-L1-HIS, donkey anti-human IgG-HRP
T3 construct: also called 重组PD-L1-HIS蛋白; PD-L1蛋白; not shown: His tag

recombinant human PDL2 = biological target: T4, recombinant human PDL2 (human, UniProt Q9BQ51 20-220, limits assumed); experiment: ELISA, coated recombinant protein, anti-human IgG-HRP
T4 construct: also called 人PDL2
T4 sequence (looked up): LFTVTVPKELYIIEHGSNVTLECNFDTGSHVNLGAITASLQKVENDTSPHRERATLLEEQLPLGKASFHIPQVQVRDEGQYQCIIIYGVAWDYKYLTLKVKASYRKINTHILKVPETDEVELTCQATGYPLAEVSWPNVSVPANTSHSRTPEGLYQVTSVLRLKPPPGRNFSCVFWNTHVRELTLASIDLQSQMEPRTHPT

recombinant human B7-1 = biological target: T5, recombinant human B7-1 (human, UniProt P33681 35-242, limits assumed); experiment: as above
T5 construct: also called 人B7-1
T5 sequence (looked up): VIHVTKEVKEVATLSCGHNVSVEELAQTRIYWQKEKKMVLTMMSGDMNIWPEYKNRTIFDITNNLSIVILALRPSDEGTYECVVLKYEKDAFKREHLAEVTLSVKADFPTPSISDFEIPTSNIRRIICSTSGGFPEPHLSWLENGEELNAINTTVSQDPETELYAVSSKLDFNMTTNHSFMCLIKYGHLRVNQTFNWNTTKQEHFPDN

recombinant human B7-2 = biological target: T6, recombinant human B7-2 (human, UniProt P42081 24-247, limits assumed); experiment: as above
T6 construct: also called 人B7-2
T6 sequence (looked up): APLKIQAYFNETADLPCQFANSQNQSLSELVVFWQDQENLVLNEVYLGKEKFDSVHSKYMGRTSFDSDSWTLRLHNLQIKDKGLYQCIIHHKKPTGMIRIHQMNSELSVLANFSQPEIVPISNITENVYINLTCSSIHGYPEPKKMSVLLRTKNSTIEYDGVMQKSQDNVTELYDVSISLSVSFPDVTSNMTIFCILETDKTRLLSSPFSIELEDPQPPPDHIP

[6] = biological target: T3, recombinant PD-L1-His protein; experiment: SPR, BIAcore T200, antibody captured by goat anti-human IgG on CM5 chip, 300nM PD-L1-HIS as analyte
[7] = biological target: T3, recombinant PD-L1-His protein; experiment: hybridoma supernatant screen, ELISA on coated PD-L1-His
[8] = biological target: T1, PD-L1 on PD-L1 overexpressing cells; experiment: phage cell-binding ELISA on PD-L1 overexpressing cells, anti-M13-HRP

T3 sequence (Q9NZQ7 19-238 limits assumed): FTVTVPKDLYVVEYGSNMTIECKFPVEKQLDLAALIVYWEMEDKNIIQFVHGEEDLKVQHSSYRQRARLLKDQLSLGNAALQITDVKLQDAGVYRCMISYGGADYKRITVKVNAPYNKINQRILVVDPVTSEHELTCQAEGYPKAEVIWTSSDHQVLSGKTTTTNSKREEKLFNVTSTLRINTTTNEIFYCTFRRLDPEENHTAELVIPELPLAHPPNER
T1 sequence (Q9NZQ7 19-290): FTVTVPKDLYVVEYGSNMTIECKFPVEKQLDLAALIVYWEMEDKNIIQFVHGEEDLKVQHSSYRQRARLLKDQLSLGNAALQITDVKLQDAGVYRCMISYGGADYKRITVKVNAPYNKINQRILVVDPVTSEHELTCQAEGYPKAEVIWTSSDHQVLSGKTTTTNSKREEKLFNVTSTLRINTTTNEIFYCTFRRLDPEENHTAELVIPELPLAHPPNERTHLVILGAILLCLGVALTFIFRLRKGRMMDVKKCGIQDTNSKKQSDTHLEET
T2 sequence (Q9NZQ7 19-238 limits assumed): as the sequence (Q9NZQ7 19-238 limits assumed) above

B1: HUL01 (antibody, human IgG1, kappa, N297A, V domains shown)
VH: EVQLQESGPGLVKPSQTLSLTCTVSGDSFSSGYWNWIRQHPGKGLEYIGYVSYTGSTYYIPSLKSRVTISRDTSKNQFSLKLSSVTAADTAVYYCAGYRDWLHGYFDYWGQGTTVTVSS
VL: DIQMTQSPSSLSASVGDRVTITCKASQNVGTNVAWYQQKPGKAPKRLIYSASYRFSGVPSRFSGSGSGTEFTLTISSLQPEDFATYYCQQYNGYPLTFGQGTKLEIKR
notes: expressed in 293C18 cells, Protein A purified; also called clone1; clone2
[1]
  EC50: 0.13 µg/mL
[2]
  IC50: 0.117 µg/mL
[3]
  IC50: 0.228 µg/mL

B2: HUL02 (antibody, human IgG1, kappa, N297A, V domains shown)
VH: B1 VH
VL: B1 VL with G30M, T31D
notes: also called clone4; PD-L1抗体HUL02
[4]
  刺激T淋巴细胞IL-2分泌的EC50 (MLR, CD4+ T cells and DC): 0.062 µg/mL
[5]
  EC50: 0.0206 µg/mL
Recombinant human PDL2
  binding result: no binding (tested: 1ug/ml)
Recombinant human B7-1
  binding result: no binding (tested: 1ug/ml)
Recombinant human B7-2
  binding result: no binding (tested: 1ug/ml)
[1]
  EC50: 0.0695 µg/mL
[2]
  IC50: 0.0716 µg/mL
[3]
  IC50: 0.115 µg/mL
[6]
  Kd: 0.17 nM

B3: murine monoclonal antibody specifically binding PD-L1 (hybridoma clone of Example 1) (antibody, V domains shown)
VH: EVQLQESGPSLVQPSQTLSLTCSVTGDSFTSGYWNWIRKFPDNKLQYMGYVSYTGSTYYIPSLKSRISITRDTSKNQYFLQLNSVTSEDTATYFCAGYRDWLHGYFDYWGQGTTLTVSS
VL: DIVMTQSQKFMSTSIGDRVSVTCKASQNVGTNVAWYQLKPGQSPKALIYSASYRFSGVPDRFTGSGSGTEFTLTITNVQSEDLTDYFCQQYNGYPLTFGAGTKLEVK
notes: Mouse IgG from hybridoma supernatant; also called 鼠源特异性结合PD-L1单克隆抗体; 鼠源抗体
[7]
  binding result: binds

B4: HUL01 scFv displayed on phage (scFv)
scFv: EVQLQESGPGLVKPSQTLSLTCTVSGDSFSSGYWNWIRQHPGKGLEYIGYVSYTGSTYYIPSLKSRVTISRDTSKNQFSLKLSSVTAADTAVYYCAGYRDWLHGYFDYWGQGTTVTVSSGGGGSGGGGSGGGGSDIQMTQSPSSLSASVGDRVTITCKASQNVGTNVAWYQQKPGKAPKRLIYSASYRFSGVPSRFSGSGSGTEFTLTISSLQPEDFATYYCQQYNGYPLTFGQGTKLEIK
notes: also called clone1; clone2
[8]
  binding result: binds

B5: HUL02 scFv displayed on phage (scFv)
scFv: B4 scFv with G164M, T165D
notes: Phage clone from the library built on the HUL01 scFv template; also called clone4
[8]
  binding result: binds
